Measurements from a protein production outcome set (Wang et al. 2014).

Experiment: label from the status in PepcDB records
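Further: failed if final PepcDB status was selected cloned or expressed and not failed if soluble or beyond.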

Q: For “MNESSTHDSVADDPTEVSTDTVLDIALSLFSELGFSDAKLEAIAKKSGMSKRMIHYHFGDKRGLYICCLEEAVRRLRPTAEEMYLASAVPVEGVRTIVEAVFHRYVQHPEAVRMLQMENLHHYGKVAEASPLSDQSAITLQLDRLLMLGQDAGAFRPGISAQDVFTLIASIAVFRINSRSTTLNLYGIDMMNGDNTDGMRRMAVDTVLAFLTSNLKSADEDSYLSRPLLSTVTEHVDEEGSYEVAADPFS”, which protein production is on record?
A: Its protein production is “not failed”.

Q: With “MNEVKSLTTAEGPTKLLNLQLKDLGDSLIDVALWGKLAEDVYSNIKSQPSGPVFSSWKFDEDFAISRHSSKLKIYNKSLYPFSTTRDSSVSRSFNCFGETPQELLDLGGRNYVFKIMVKHEAKHNQSSTYKMISLTDVLNVIQSFFESASTLNDIEQEIITVSGNSVGTSIGTTTQAEINFVDVDNLDNNEDNAYYISTPKPITKRFLATSKHVQQSSTKP” as the sequence, how does the protein production read?
A: Its protein production is “not failed”.

Q: With “MNEYLQAVLMILLTIVLYYVSKKIQDKYNNPLLNPALIASIAIIIVLLVCGVSYKGYMKGGTWINHVLNATVVCLAYPLYQNKKKIKKYLTIIFTSVLTGVVLNFVLVFTTLKIFGYSKDTIVTLLPRSITAAVGIEVSQELGGTDTITVLFIITTGLIGSILGSMLLRMGGFKSSIARGLTYGNASHAFGTAKALELDIESGAFSSIGMILTAVISSVLIPVLILLFY” as the sequence, how does the protein production read?
A: The protein production was “failed”.

Q: Which protein production does the source give for “MNFAGQPLQDGSLPRIGTGKDALSLLDLSDFVARHWRFIGLVTVFVMALALAYLAAAPSRYTAQTDMIIDTKRVTWTQSEFATENRMVEDASVESEIETTKSEKVALQVIRKLRLTEDPEFIGSGTGLRNRLYQLLDLDAPISPQLTPSELEARALSRVKDNLKVMRLGRSYIEQISFTSLVPEKAAVIANAFADAYIEDQIQAKFEATRRASEWLQQRIGELRQQASDAYRAVQDFKSSNSIIVSGDGKLASDLELDQLGISLAKARAETSQARAKLERITRVLELRQEKGSNEIPDPVVTDALSNPVITRLRQQYLDNQSKEAEWSSRYGAEHQAARNLRSEMANVRQAIWDEVSRIAESYRSEVQIAKTQEDSIDKRMIEVFQSSTGTRQAQVHLRELETAATTYRGIYETFLTRFTQSVQQQSFPSTEARVVTLASPPSVRSSPKTNLTLALAAISGLTLGILGAFARDRMSRRIHTRAQLETILGTSCLAIIPSFANPALTSQTSTSSSRLSRAVKQLLRKRDHVPGQPRERSQANSAAFEKINDVAPFSATAEALRHIKVAIDLSPGGGRVIGIVSARPGEGKTTICASFAAFLARSGARTLLIDGDLRNPSLSRTLGYKNKRGLLELVADQLQLSDLVVTDPVYKFDFLPSATEMKPINSADVLTSPSVKRMLKSAAGNYDYIIVDLPPILPVVDVKAAAHLFDAFVLVVEWGATMSDEVRSAVGVSRSLSERLLGAVLNKTDEDVMRRLEGYSYRSHHYYYYGAPKHENEQTKN” here?
A: Its protein production is “failed”.

Q: For “MNFEYPDGATPLDSDEAEGLLLTHITSRGELDRWEQENIAEGEAWAFGRRQKNILSEAFIRRLHKRMFGHVWRWAGEFRRSDKNIGVTWWQVPIELRKLCDDVVAWIAFGTYPPDEIAVRFHHRLVAIHPFANGNGRHARTMTDLLLVQALQRPRFTWGSGNLVSVGDCRRYYIEALRAADRHDYQLLLEFVRMLEHHHHHH”, which protein production is on record?
A: Its protein production is “failed”.

Q: Which protein production does the source give for “MNFIIEPGSLADIDELERLYDELNDHLSATINYPGWIKGIYPVRENAAAGVDDNSLFVARCDGRIAGSVILDHQPEKAYENIVWKIDADYSYIFVVRTFVVHPSFLQMGVGHALMDFSLELALKSEMKSIRLDVYEKNLPAISLYEKCGFEYIDTVDLGLGHYGLDWFKLYEKVILEHHHHHH” here?
A: The protein production was “not failed”.

Q: For “MNGARKWFFPDGYIPNGKRGYLVSHESLCIMNTGDETAKIRITFLFEDSKPVVHEVEISPMKSLHLRLDKLGIPKCKPYSIMAESNVPVVMQLSRLDVGKNHYTLMTTIGYWEE”, which protein production is on record?
A: The protein production was “not failed”.

Q: For “MNHDLLTNNPLLIVSAIFVFFILLEIACSAFGQPRGQRRDVLIEAVGSSLLLGVTFPLVMWASGALMQLSLPEAKGALAQIPWVLGLLLFLVFDDMTQYWWHRLTHRVPALYALHRAHHSAPYMSIRIVYRNNSFYYLLMPGIWFSGVLIYLGLAPVYYGYLILKMTVIFAAHSSVAWDDKLYRIGFLRPLMWLLERVFSTPSTHSAHHGLSAEDGVTHYKGNFGNLLFLWDVLFGTAKITRRRPVAYGIEHLAPVSWTQELFWPLVRSRKARASAVARVEGALPANPASQG”, which protein production is on record?
A: Its protein production is “failed”.

Q: With “MNHYFRAIGSMLILVYSTFFAIFFIDKVFVNIMYFQGMFYTQIFGIPVLLFLNLMVILLCIIVGSVLAYKINQQNHWLKDQIERSIEGQTVGINDQNIELYNETIELYQTLVPLNQEVHKLRMKTQNLTNESYNINDVKVKKIIEDERQRLARELHDSVSQQLFAASMMLSAIKETELKAPLDQQIPVLEKMIQDSQLEMRALLLHLRPIGLKDKSLGEGIKDLVVDLQKKVPMKVVHDIEEFKVPKGIEDHLFRITQEAISNTLRHSKGTKVTIELFNREEYLLLRIQDNGKGFNVDDKVEQSYGLKNMRERALEIGATFHIVSLPDAGTRIEVKAPLNKEDSNAD” as the sequence, how does the protein production read?
A: Its protein production is “failed”.

Q: For “MNIAANPHVQADQTVYLKDYQKPSFLVESINLDIQVYDDHTVVESTLVMNRQTAGDLVLLGRDLELKSIVLNGKNLEVGQYQLDHEQLVITHAPDQVILNTQVVIHPESNTQLEGLYKAGGDLFVTQNEPEGFRKITFYPDRPDVLAEFTTRVEADKKFPVLLANGNLLETGTVGENRHFAIWQDPTKKPSYLFACVIGDLAVLKDHYTTSEGREVALEIYAIEKDIPKCHIAMEALKHSMRWDEEHYGRPYDLDNYMIVAVSQFNMGAMENKGLNIFNTSCVLADEEYTTDAAIMRVQSVIAHEYFHNWTGNRITCRDWFQLCLKEGLTVFRDQSFSEDLQSAAVQRIDDVAVLKAHQFPEDAGPLSHPPRPDHFVEINNFYTATVYEKGAEINRMMSTLLGKEKFRQGTDEYFHRYDGQAVTVEDWVNALSAGSGVDLSNFLTWYNQPGTPKLEAKGEYDEQNHVYRLSFKQSLKVHPKYPNLKAVPVPVALALFNAETGEQYTLHCQDLFVNEVQDGVYLFDQDTATIEFSNVTQKPVVSLLRNFSAPVNLDFDYSDDELAFLIEYETNGFNQWQASQTLLERILLKDHAVEPYIKAIKNTLPDLVKKDPLLASRLFDVPTEGYLGSRIDHDYKPEAIQEKRNSVLETLARELGAFWKETYLSLDPSLQNDFSQAMGERALKNIMLSMMARQGDDSVFDLAYTQYSQTKNMSERLGALRVLVWNDAPQAQNALDDFYRRYKDEALSLDQWFMVQAANPNATAETIKALTEHPDYDLGTPNRVRSVSGGLSNNPVNAWSFGVEHYIGLAEYFDEKNPILGSRLLQVLSRWYTLAEPQRGNVQNALKDLQPHVKSKNVKETLNSILSV”, which protein production is on record?
A: The protein production was “failed”.

Q: Which protein production does the source give for “MNIDEIERKIDEAIEKEDYETLLSLLNKRKELMEGLPKDKLSEILEKDRKRLEIIEKRKTALFQEINVIREARSSLQK” here?
A: The protein production was “not failed”.

Q: Which protein production does the source give for “MNIDLTPYYAEPGEQPFSARRMAMPWRNHVPLSPEQIPAGWQTLKQQSVPARKRLLYLHIPFCATHCTFCGFYQNKLRDDSTATYTRYLLQELAMEADSPLHQSAPIHAVYFGGGTPTALAADELSQIIRAIRTSLPLAPDCEITVEGRAMDFDDERIDACLDAGANRFSIGIQTFDTRIRQRMARTSDKQQSIRFLERLCGRDRAAVVCDLMFGLPGQTPEIWREDLAIVSDLPLDGVDLYALNLLPTTPLAKAAENQRVALPDVVARRDFYRTGAAFLADSGWHQLSNSHWARTTRERNLYNLLIKQGADCLAMGSGAGGNINGQAYMMERSLERYYQQIDQGQKPIMMMTPASSTGPWQHQLQAGIEVGRIKLPQLTQHARELQPLLSQWHQAGLTCDDSTCLRLTNDGRFWANNLMQALQQIIPQLNAEEHAHLEHHHHHH” here?
A: Its protein production is “not failed”.

Q: Which protein production does the source give for “MNIEKTRFCINRKIAPGLSIEAFFRLVKRLEFNKVELRNDMPSGSVTDDLNYNQVRNLAEKYGLEIVTINAVYPFNQLTEEVVKKTEGLLRDAQGVGARALVLCPLNDGTIVPPEVTVEAIKRLSDLFARYDIQGLVEPLGFRVSSLRSAVWAQQLIREAGSPFKVLLDTFHHHLYEEAEKEFASRIDISAIGLVHLSGVEDTRPTEALADEQRIMLSEKDVMQNYQQVQRLENMGYRGIYAFEPFSSQLASWSEAEIEEQINRSVSLLLQ” here?
A: The protein production was “not failed”.

Q: For “MNIIIATTKSWNIKNAQKFKKENESKYNTTIITNKDELTFEKVKLINPEYILFPHWSWIIPKEIFENFTCVVFHMTDLPFGRGGSPLQNLIERGIKKTKISAIKVDGGIDTGDIFFKRDLDLYGTAEEIFMRASKIIFNDMIPELLTKRPVPQKQEGEATVFQRRKPEQSEISPDFDLEKIYDYIRMLDGEGYPRAFIKYGKYRLEFSRASMKNGKIIADVEIIEGDENE”, which protein production is on record?
A: The protein production was “not failed”.

Q: For “MNIITTDPLFGFVLTVLVFMIGVRINENFRKPWTNPLLFATVVIILILSLAHIPYKNYYIGGSIINDLIGPSTVALGIPLYKTFHLMKHHARSIVSSIAIAALVNCIFTALCAKFFSLSKLASLSIFPKSVTTAMAMGISDKMHGVEQITVVVVVATGILTSVLGGPLLKLFRITDPVAQGIALGGTGHAVGTGTAIELGKTQGAMAALSIGVTGIMYVIFAPIIAKIILGY”, which protein production is on record?
A: The protein production was “failed”.

Q: Which protein production does the source give for “MNIKVTVFHYILDRSYIFLLFIIFISLIFPIISAFISLIFVGLLFQGLYLRRQSSTNSPYIVLEILSMLSLIYAAQFFTHLLKATDIVFLSYLIIISLSLYRLKRIIKKKTNYLQNSKVAFTLLLLAFLLNWFISGFLDLTQGNFSVFGQFGYFSYPFLAIMNFISAFASITASPWFMIDMGIWLGVIGIFRIIEYNKLENKIRYLLMMFAYAFYSIYLPSFSPLQSEVQYIPYMWFNGLGTYGPVRSSYLLDGIIGTFTVTAILSFMFGSRQICSVTCTAPYMLQNTFLNSMKKYNRSSKVGRKTLTSRMSSWYKWVMSITWISLIILAVLSFLKFSILGNDPTMFYTSLYFNVIWYFQFMLMPFLGNYACVNSGICAWGSFNQLFGYLGFFKLKVRDLKQCLNCKTVDCANACPVGLTDMRAWFIKKGEFKSFKCVGVGDCVEVCPYNNITFYDVRSWIKEKLYPIQFKHRGTT” here?
A: The protein production was “failed”.

Q: With “MNILLAFKAEPDAGMLAEKEWQAAQGNSGPDVSLLRSLLGADEQAAAALLLAQRKNGTSMSLTALSMGDERALHWLRYLMALGFEDAVLLETAADLRFAPEFVARHIAEWQYQNPLELIITGCQSSEGQNGQTPFLLAEMLGWPCFTQVERFTLDAPFITLEQRTENGLRCCRVRLPAVIAVRQCGEVALPVPGMRQRMAAGKAEIIRKTVAAEMPAMQCLQLARAEQRRGATLIDGQTVAEKAQKLWQYYLCQRMQ” as the sequence, how does the protein production read?
A: Its protein production is “failed”.

Q: Which protein production does the source give for “MNILNNKNKRTSIFKALALCLFAAVSFTFVSCDDDMDIQQSYPFTVETMPVPNKVTKGQTVEIRCELKKTGDFANTLYTIRYFQFEGEGTLKMDNGITFLPNDRYLLENEKFRLYYTAQGDEAHNFIVVVEDNFGNSYELEFDFNNRNVKDDGVITVVPIGNFKPLTR” here?
A: The protein production was “failed”.

Q: With “MNILYNERIDGVLPAVDKQQLLDELRRQLPDLDVLHRTEELRPYECDGLSAYRTTPMLVVLPRHLEEVQTLLRLCHAHRVPVVARGAGTGLSGGALPLEKGVLLVMARFNQILAIDPAARVARVQPGVRNLAISQAAAPHGLYYAPDPSSQIACSIGGNVAENAGGVHCLKYGLTVHNLLKVEILTVEGEAMTLGSDTLDSPGFDLLALFTGSEGMLGIITEVTVKLLPRPQVAKVLLAAFDSVEKAGRAVADIIAAGIIPGGLEMMDNLAIRAAEDFIHAGYPVDAEAILLCELDGVEADVHADCERVREVLTQAGATEVRQAIDEAERVRFWAGRKNAFPAVGRLSPDYYCMDGTIPRRALPGVLRGISELSGQYGLRVANVFHAGDGNMHPLILFDANQPGELQRAEALGGKILELCVEVGGSITGEHGVGREKINQMCAQFNSDELTFFHAIKAAFDASGMLNPGKNIPTLQRCAEFGAMHIHAGQLPFPELERF” as the sequence, how does the protein production read?
A: Its protein production is “failed”.
